The target in assay [1] is T1, Recombinant canine IL-4 (R&D Systems, Catalog: 752-CL/CF) (canine, UniProt O77762 25-132).
T1 sequence (looked up): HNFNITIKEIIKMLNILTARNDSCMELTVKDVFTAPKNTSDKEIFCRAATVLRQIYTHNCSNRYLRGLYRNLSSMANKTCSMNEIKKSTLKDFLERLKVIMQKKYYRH
Kind of assay: cell-based or functional assay.

Assay [2] deals with T2, Canine IL-4 with C-terminal Avi-HIS tag (canine, biotin label when loaded on SA biosensors (Example 4); site not stated).
T2 construct: also called cIL-4; biotinylated avitag-cIL-4
T2 chain: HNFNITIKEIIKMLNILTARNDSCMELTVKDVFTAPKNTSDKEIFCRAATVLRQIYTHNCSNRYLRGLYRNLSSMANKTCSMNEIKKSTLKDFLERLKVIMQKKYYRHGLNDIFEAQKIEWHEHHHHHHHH
Kind of assay: BLI (OCTET HTX); biotin-mAb on SA biosensors, cIL-4 in solution; 1:1 model. As for the experimental part:
Selected scFv specific to cIL-4 or cIL-13 were converted into full length canine IgG mAbs and tested for binding by OCTET. All kinetics measurements were performed by OCTET HTX using SA biosensors and Data Acquisition 12.0 software. First, each biotin-labeled full-length anti-canine IL-4 or anti-canine IL-13 mAb, at a concentration of 5 μg/mL, were loaded onto the pre-rehydrated SA biosensors until binding signal change ascended to a […] threshold for all channels from the step start or for a maximum of 1200s to insure equal loading density. Second, the biosensors were placed into OCTET Kinetics Buffer (PBS+0.02% Tween20, 0.1% BSA) for the blocking phase for 60s. Third, for the association phase, full-length anti-canine IL-4 mAb or anti-canine IL-13 mAb loaded biosensors were placed into 2-fold serial dilutions from 1000 nM down to 15.6 nM of cIL-4 or cIL-13, respectively, in OCTET Kinetics Buffer for 60s. The last well was buffer alone and that sensor was used for reference sensor subtraction. Finally, the biosensors were placed into OCTET Kinetics Buffer for the dissociation phase for 180s. Analysis was performed using Data Analysis 12.0 software and curves were fitted using a 1:1 binding model.

Assay [3] concerns the target T3, Canine IL-13 with C-terminal Avi-HIS tag (canine, biotin label when loaded on SA biosensors (Example 4); site not stated).
T3 construct: also called cIL-13; biotinylated avitag-cIL13
T3 chain: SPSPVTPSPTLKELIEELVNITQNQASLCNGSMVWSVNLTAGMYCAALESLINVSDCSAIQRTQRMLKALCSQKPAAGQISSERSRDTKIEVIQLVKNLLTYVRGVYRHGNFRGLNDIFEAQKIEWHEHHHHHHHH
Kind of assay: BLI (OCTET HTX); biotin-cIL-13 on SA biosensors, scFv in solution; 1:1 model. As for the experimental part: The in vitro binding of anti-canine IL-4 scFv and IL-13 scFv to canine IL-4 and canine IL-13, respectively, was determined by OCTET HTX using SA biosensors and Data Acquisition 12.0 software. First, biotin-labeled antigen (cIL-4 or cIL-13) was loaded onto the pre-rehydrated SA biosensors for 60 seconds (60s) at a concentration of 5 μg/mL. Second, the biosensors were placed into the OCTET Kinetics Buffer (PBS+0.02% Tween20, 0.1% BSA) for the blocking phase for 120s. Third, for the association phase, cIL-4 or cIL-13 antigen loaded biosensors were placed into 2-fold serial dilutions from 500 nM down to 7.8 nM of anti-cIL-4 or anti-cIL-13 scFvs, respectively, in OCTET Kinetics Buffer for 60s. The last well was buffer alone and that sensor was used for reference sensor subtraction. Finally, the biosensors were placed into OCTET Kinetics Buffer for the dissociation phase for 300s. The analysis was performed using Data Analysis 12.0 software and curves were fitted using a 1:1 binding model.

Consider 13 molecules from US20260234236A1 (INTERVET, published 2026).

For orientation: Kd means the free concentration of one partner at which half of the binding sites on the other are occupied at equilibrium, for simple one-to-one binding. A lower Kd goes with tighter binding. The koff is the first-order rate constant of dissociation. Read a low koff as a long-lived complex. In general, kon refers to the rate constant with which the complex forms. The low end stands for slower complex formation, the high end for faster complex formation.

B1: IL4-P3-1C4VH-cIgGB/IL4-P3-1C4VL-cCL (antibody, V domains shown)
VH: EVPLVESGGDLVKPGGSLRISCVASGITFNNDDMGWVRQAPGKGLQWLAEISSSGTSTYYADAVKGRFTISRDNAKNTVYLQMNSLKAEDTGVYYCVGEDGYMALGFWGQGTLVTVSS
VL: QAVLNQPASVSGSLGQRVTISCSGSTNNIGVVGASWYQQFPGKAPKLLVYSDGDRPSGVPDRFSGSNSGYSDTLTITGLQAEDEADYYCQSFDTTLNAYVFGSGTQLTVLG
notes: Full-length canine IgG-B; also called IL4 P3-1 C4 5LC
In the case of B1, the “IL-4 IC50 (nM); inhibition of canine IL-4 mediated STAT6 phosphorylation in DH82 cells” value (from here on “IL-4 IC50 (nM); inhibition”) in assay [1] was 5.41 nM. Also, in assay [2], the Kd worked out at 10.5 nM, the koff was 0.0189 s⁻¹ and the kon came out at 1.8e+06 M⁻¹ s⁻¹.

B2: IL4-P3-1B10VH-cIgGB/IL4-P3-1B10VL-cCL (antibody, V domains shown)
VH: EVQLVESGGDLVKPGGSLRLSCVASGFTFSNYDMSWVRQAPGKGLQWVSTISYDGNNTYYSDAVKGRFTISRDNARNTLYLQMNSLRAEDTAVYYCAKEFDIPWDNFDYWGQGTLVTVSS
VL: QSVLTQPTSVSAALGQRVTISCTGSNANIGSVYDVQWYQQLPGKSPKTIIYGNTHRPSGVPVRFSGSKSGSTATLTITGIQAEDEADYYCQSYDATLHYVFGSGTQLTVLG
Take B2: in assay [1], the “IL-4 IC50 (nM); inhibition” value was determined as 87.8 nM.

B3: IL4-P3-1B10VHm-cIgGB/IL4-P3-1B10VL-cCL (antibody, V domains shown)
VH: EVQLVESGGDLVKPGGSLRLSCVASGFTFSNYDMSWVRQAPGKGLQWVSTISYDGQNTYYSDAVKGRFTISRDNARNTLYLQMNSLRAEDTAVYYCAKEFDIPWDNFDYWGQGTLVTVSS
VL: QSVLTQPTSVSAALGQRVTISCTGSNANIGSVYDVQWYQQLPGKSPKTIIYGNTHRPSGVPVRFSGSKSGSTATLTITGIQAEDEADYYCQSYDATLHYVFGSGTQLTVLG
notes: Full-length canine IgG-B; also called IL4 P3-1 B10m
Turning to B3, the “IL-4 IC50 (nM); inhibition” value in assay [1] is 30 nM. In assay [2], this molecule gave a Kd of 0.622 nM, a koff of 0.000809 s⁻¹ and a kon of 1.3e+06 M⁻¹ s⁻¹.

B4: IL4-P3-1D7VH-cIgGB/IL4-P3-1D7VL-cCL (antibody, V domains shown)
VH: EVQLVQSGGDLVKPGGSLRLSCVASGFAFNGYDMDWVRLAPGKGLQWLSEISSSGSPTYYADAVEGRFTISRDNAKNTLYLQMDSLRAEDTAVYYCARAGEYTYGYEGYYFDYWGQGTLVTVSS
VL: QSMLTQPASVSGSLGQRVAISCSGSTNNIGIFGATWYQHLPGKAPKFLLYSDGNRPSGVPDRFSGSDSGNSVTLMITALQAEDEADYYCQSFDTTLGAYVFGSGTQLTILG
notes: Full-length canine IgG-B; also called IL4-P3-1D7VH-cIgGB/IL4-P3-D7VL-cCL
Regarding B4, the “IL-4 IC50 (nM); inhibition” value in assay [1] is 37.6 nM. In assay [2], this molecule displayed a Kd of 2.01 nM, a koff of 0.00226 s⁻¹ and a kon of 1.12e+06 M⁻¹ s⁻¹.

B5: IL13 P3-05 scFv (scFv)
scFv: SYVLTQPPSVTVPLRQTARISCGGDNIRSKNVHWYQQKPGQAPVLIIYNDSNRPTGIPERFSGSNSGNMATLTIRGALAEDEADYYCQVWANDGYVFGSGTQLTVLGGGSSRSSSSGGGGSGGGGEVQLVESGGDSVRPGGSLRLSCVASGFTFSRYNMGWVRQAPGKGLQWVAWIYDGGSRTSYADAVKGRFTISRDNAKDTLYLQMDDLRVDDTAVYYCARDPSSWGSLFDYWGQGTLVTVSSASTTAPSVTSGQAGQ
notes: scFv purified from E. coli periplasm on Ni-NTA
In assay [3], B5 gave a Kd of 59.7 nM, a koff of 0.00487 s⁻¹ and a kon of 176000 M⁻¹ s⁻¹.

B6: IL13 P3-1 G5 scFv (scFv)
scFv: SYELTQPPSVSVSLGQTATISCSGESLSKYYAQWFQQKAGQAPVLVIYQDTERPSGIPDRFSGSSSGNTHTLTISGARAEDEADYYCESAISPDTYVFGSGTQLTILGGGSSRSSSSGGGGSGGGGEVQLVQSGGDLVKPGGTLRLSCVASGFTFSSYDMSWVRQSPGKGLQWVAAIWNDGSNTEYADAVKGRFTVSRDNAKNTVYLEMNSLRAEDTAMYYCVKEGPSYGYFDYWGQGTLVTVSSASTTAPSVTSGQAGQ
notes: as for B5
In the case of B6, in assay [3], the Kd was 158 nM, the koff is 0.0158 s⁻¹ and the kon amounted to 104000 M⁻¹ s⁻¹.

B7: IL4-P3-1A6VH-cIgGB/IL4-P3-1A6VL-cCL (antibody, V domains shown)
VH: EVPLVESGGDLVKPGGSLRLSCVASGFTFHNYDLSWIRQLPGGGLQWVADIDKSGLTFYADAVKGRFTISRDNAKNTLYLQMNSLRAEDTAVYYCATWPLGSWYTETFEYWGQGTLVTVSS
VL: QPVLTQPPSVSAALGQRVTISCNTNIGSPYDVQWYQQLPGKSPKTIIYGNSNRPSGVPVRFSGSKSGSTATLTIAGIQAEDEADYYCQSYDDNVDGYVFGSGTQLTVLG
Consider B7, for which the “IL-4 IC50 (nM); inhibition” value in assay [1] was found to be 0.56 nM.

B8: IL 13 P3-1C6 scFv (scFv)
scFv: QSVLTQPASVSGSLGQRVTISCSGRTNNIGYFGANWYQQVPGKAPKLLVSSYGNRPSGVPDRFSASNSANSATLTITGLQAEDEADYYCQSFDTTLGAVVFGGGTQLTVLGGGSSRSSSSGGGGSGGGGELTLQESGPGLVKPSQTLSLTCVVSGGSVTNTYEWDWIRQRPGRGLEWMGSWTDNTWYNPAFQGRISITADTAKNQLSLQLSSVTTGDTAVYFCARWTKRWGYDYWGQGTLVTVSSASTTAPSVTSGQAGQ
notes: scFv purified from E. coli periplasm on Ni-NTA; also called IL13 1C6
In assay [3], B8 showed a Kd of 45.2 nM, a koff of 0.0107 s⁻¹ and an on-rate constant (kon) of 304000 M⁻¹ s⁻¹.

B9: IL4-P3-1B9VH-cIgGB/IL4-P3-1B9VL-cCL (antibody, V domains shown)
VH: ELQLVELGGDLVKPGGSLRLSCVASGFTFSSYGMSWVRQSPGKGLQWVADISSSGSTYYADAVKGRFTISRDNAKSTLYLQMNSLRAEDTAVYYCAKAGYGSYYDFGMDYWGHGTSVFVSS
VL: QAVLTQPASVSAALGQRVTISCTGTATNVGGGYDVQWYQQFPGRPPKTIIYGNYNRPSGVPDRFSASTSGTTATLTITGIQVADEADYYCQSFDTTFNGHVFGAGTQLTILG
notes: Full-length canine IgG-B
Regarding B9, in assay [1], the “IL-4 IC50 (nM); inhibition” value amounted to 3.77 nM. In addition, in assay [2], binding was put at a Kd of 0.0635 nM, the koff came out at 2.11e-05 s⁻¹ and the kon was 212000 M⁻¹ s⁻¹.

B10: IL13 P3-1 B4 scFv (scFv)
scFv: SYVLTQSPSVSGSLGQTVTISCSGTTIGVVGANWYQQLPGKAPKLLVHSDGGRLSGVPDRFSGSESGNSAALTITGLQAEDEADYYCQSFDTTLGYVFGSGTQLTILGGGSSRSSSSGGGGSGGGGELTLQESGPGLVKPSQTLSLTCVVSGGSVTSNYYWNWIRQRPGRGLEWMGYWTGSTNYNPAFQGRISITADTAKNHFSLQLTSMTTEDTAVYYCARASTWLHGMDFWGHGTSLFVSSESPSPPNLTSGQAGQ
notes: as for B5
With B10, in assay [3], the Kd is 13.1 nM, the koff amounted to 0.00224 s⁻¹ and the kon was 320000 M⁻¹ s⁻¹.

B11: IL4-P4-1G3VH-cIgGB/IL4-P4-1G3VL-cCL (antibody, V domains shown)
VH: EVQLVESGGDLVKPGGSLRLSCVASGFTFSSYDMDWVRQAPGKGLEWLSEISTNGDRTHYADAVKGRFAISRDNAKNTVYLQMNSLRAEDTAIYYCVRDGYEYLAFDYWGQGTLVTVSS
VL: QSVLNQLPSLSMNMGETATFTCEGDNIGHKYVNWYQQKPGQAPVLTIYEDNKRPSGIPERFSGSNSGNTATLTISGARAEDEADYYCESEVSTGIVFGGGTHLTVLG
notes: Full-length canine IgG-B
As for B11, the “IL-4 IC50 (nM); inhibition” value in assay [1] came to 8.31 nM. Besides, in assay [2], binding was characterised by a dissociation constant (Kd) of 1.51 nM, the koff is 0.00243 s⁻¹ and the kon came to 1.61e+06 M⁻¹ s⁻¹.

B12: IL13 P3-1 C2 scFv (scFv)
scFv: QAVLNQPASVSGSLGQRVTISCSGSSSNIGRGFVGWYQQLPGTRPKTLIYGDTFRPSGVPDRFFGSRSGSTATLTISGLQAEDEADYYCSTWDDSLAALLFGGGTHLTVLGGGSSRSSFSGGGGSGGGGEVQLVESGGDLVKPGGSLRLSCAASGFTFTDYDMSWVRQAPGKGLQWVATTSNGGSGTYYSDAVKGRFTISRDNAKNTLYLEMNRLRAEDTAVYYCVKEIYPASIDFWGLGTLVTVSSASTTAPSVTSGQAGQ
notes: as for B5
In assay [3], B12 gave a Kd of 77.4 nM, a koff of 0.00192 s⁻¹ and an association rate constant (kon) of 29600 M⁻¹ s⁻¹.

B13: IL4-P4A-1A4VH-cIgGB/IL4-P4A-1A4VL-cCL (antibody, V domains shown)
VH: EVQLVESGGDLVKPGGSLRLSCVASGFNFSRYSMSWVRQAPEKGLQLVAAVNSGGSRTWYADAVQGRFTVSRDNAKNTLFLEMSSLKLEDTAMYYCAKDLWSTTIAEYDYWGQGTLVTVSS
VL: SYVLSQPPSVSVTPSETAHITCGGNNIGSKYVQWIRQSAGQAPVTIIYGNTNRPTGIPERFSGANSGNTATLTISGVLAEDEADYYCQVGDTDTTVFGGGTHLTVL
Take B13: in assay [1], the “IL-4 IC50 (nM); inhibition” value stood at 4.24 nM.
